Here are results for 41 sequences from the nanobody polyreactivity screen of Harvey et al. (2022).

The series in a line: yeast display, Sf9 membrane polyspecificity reagent, FACS + sequencing; frameworks hold sequencing errors. The gist of the method:
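Nanobodies came from a synthetic yeast display library in Saccharomyces cerevisiae BJ5465, induced with galactose for 36–48 hours and stained for 1 hour at 4 °C with 10% biotinylated, detergent-solubilized Sf9 membrane reagent. Cells were enriched on streptavidin microbeads and then FACS-sorted, with low and high (top ~1%) gates set on anti-HA fluorescence for expression and streptavidin fluorescence for reagent binding. Each polyreactivity label reflects the gate a clone came from. Genes were amplified by colony PCR, sequenced by MiSeq 2 × 250 and filtered by CDR length.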
“QVHLVESGGGLVQAGGSLRLSCAASGRTIVGYDMGWYRQAPGKEMELVAAISSRGGSTYYADSVKGRFTISRDNAKNTVYLQRNSLKPEDTAVYYCAALWYVGYGPVDYWGQGTQVTVSS”: the “polyreactivity (PSR sort gate)” value was “high polyreactivity”. For “QVHLVESGGGLVQAGGSLRLSCAASGRTLGGYAMGWYRQAPGKERELVAVITWNGGSTYADSVKGRFTISRDNAKNTVYLQRNSLKPEDTAVYYCAVYIPRGGRSGYWGQGTQVTVSS” the value was “high polyreactivity”. As to “QVHLVESGGGLVQAGGSLRLSCAASGRTLYCYAMGWYRQAPGKERELVASIRSGGSTNYADSVKGRFTISRDNAKNTVYLQMNSLKPEVTAVYYCNTGSRLDRVDSWGQGTQVTVSS”, the “polyreactivity (PSR sort gate)” value was “low polyreactivity”. Take “QVHLVESGGGLVQAGGSLRLSCAASGRTYGVNAMGRYRQAPGKEREFVAAISKRGGSTYYADSVKGRFTISRDNAKNTVYLQMNSLKPEDTAGYYCAADYTTHYWGQGTQVTVSS”: the “polyreactivity (PSR sort gate)” value was “high polyreactivity”.

In the case of “QVHLVESGGGLVQAGGSLRLSCAASGSIFAINAMGWYRQAPGKERELVARISWSGGRTYYADSVKGRFTISRDNAKNTVYLQMNSLKPEDTAVYYCAKRYYKSLNRDEFDSWGQGTQVTVSS”, the “polyreactivity (PSR sort gate)” value is listed as “high polyreactivity”. The value for “QVHLVESGGGLVQAGGSLRLSCAASGSIFAWYGMGWYRQAPGKERELVAAISTAGSTNYADSVKGRFTISRDNAKNTVYLQMNSLKPEDTAVYYCAADWGGLWFWYEYWGQCTQVTVSS” was “low polyreactivity”; that for “QVHLVESGGGLVQAGGSLRLSCAASGSIFDEYAMGWYRQAPGKERELVAAITSGGSTNYADSVKGRFTISRDNAKNTVYLQMNSLKPEDTAVYYCNVARQAKGMGYWGQGTEVTVSS” was “low polyreactivity”. The value for “QVHLVESGGGLVQAGGSLRLSCAASGSIFEINAMGWYRQAPGKEWELVAAITGSGGSTHYADSVKGRFTISRDNAKNTVYLPMNSLNPEDTAVYYCAAVPRYQYGYWGQGTQVTVSS” was “low polyreactivity”; that for “QVHLVESGGGLVQAGGSLRLSCAASGSIFNENAMGWYRQAPGKERELVATISRRGGSTYYADSVKGRFTISRDNAKNTVYLQMNSLKPEDTAVYYCARDIFWVVYWGQGTQVTVSS” was “high polyreactivity”; that for “QVHLVESGGGLVQAGGSLRLSCAASGSIFRKYAMGWYRQAPGKERELLAAISVSGGSTYYADSVKGRFTISRDNAKNTVYLQMNSLNPEDTAVYYCAADSGPFNRYAPRGYWGQGTQVTVSS” was “low polyreactivity”. With “QVHLVESGGGLVQAGGSLRLSCAASGSIFSYYAMGWYRQAPGKERELVASITYSGGSTYYADSVKGRFTISRDNAKNTVYLQMNSLKPEDTAVYYCNTDWRTSVGYDYWGQGTQVTVSS”, the “polyreactivity (PSR sort gate)” value is recorded as “low polyreactivity”.

On to “QVHLVESGGGLVQAGGSLRLSCAASGSIFTSYAMGWYRQAPGKERELVAAITSGGSTNYADSVKGRFTISRDNAKNTVFLKMNSLKPEDTAVDYCAKDRPGQLRWWFLYGYWGQGTQVTVSS”, for which the “polyreactivity (PSR sort gate)” value was “low polyreactivity”. For “QVHLVESGGGLVQAGGSLRLSCAASGSIFYDYAMVWYIQAPGKERELVAAINSGDSTYYADSVKGRFTISRDNAKNTVYLQMNSLKPEDTAVYFCAATYFSPYIEYDYWGQGTQVTVSS” the value was “low polyreactivity”; for “QVHLVESGGGLVQAGGSLRLSCAASGSIYPYTMGWYRQAPGKERELVAGITRSGGRTYYADSVKGRFTISRDNAKNTVYLQMNSLKPEDTAVYYCAAGTTAWYWSEYYYWGQGTQVTVSS”, “high polyreactivity”; for “QVHLVESGGGLVQAGGSLRLSCAASGSNFDINAMGWYRQAPGKERELVAVITDSGSTYYADSVKGRFTISRDNAKNTVYLQMNRLKPEDTAVYYSAADQVVAGLLTPEYDYWGQGTQVTVSS”, “low polyreactivity”. The value for “QVHLVESGGGLVQAGGSLRLSCAASGSNFYWNAMGWYRQAPGKESELFAAISSGGRTYYADSLKGRFTISRDNAKNTVYLQLNSLKREDTAFYYCNAAGWIFPSFSPMDYWGQGTQVTVSS” was “low polyreactivity”; that for “QVHLVESGGGLVQAGGSLRLSCAASGSTFDDNTMGWYRQAPGKERELVAAISSDSSTNYADSVKGRFTISRDNAKNTVYLQMNSLKPEDTAVYSCATRSRTTKIVRWPGMYYWGQGTQVTVSS” was “high polyreactivity”. As for “QVHLVESGGGLVQAGGSLRLSCAASGSTFGLNAMGWYRQAPGKERELVAAITRSDITNYADSVKGRFTISRDNAKNTVYLQMNSLKPEDTAVYYCNKTPDRHRRYFGYGYWGQGTQVTVSS”, the “polyreactivity (PSR sort gate)” value was “low polyreactivity”. “QVHLVESGGGLVQAGGSLRLSCAASGSTFGYYAMGWYRQAPGKERELVAAIRYSGGTTYYADSVKGRFTISRDNAKNTVYLQMNSLKPEDTAVYYCAAVYTSGYYYWGQGTQVTVSS”: the “polyreactivity (PSR sort gate)” value was “high polyreactivity”. For “QVHLVESGGGLVQAGGSLRLSCAASGSTFHKYALGWYRQAPGKEREYVAAISWSGGSTYYADSVKGRFTISRDNAKYTVYLQMNSLKPEDTAVYFCAARGNRYAYPRKYDYWGQGTQVTVSS” the value was “high polyreactivity”; for “QVHLVESGGGLVQAGGSLRLSCAASGSTFIYYGMGWYRHAPGKERELVATISSGGSTNYADSVKGRFTISRDNAKNTVYLQMNSLKPEDTAVYYCAVAPYYYGLLWNTFYEYYYWGQGTQVTVSS”, “high polyreactivity”; for “QVHLVESGGGLVQAGGSLRLSCAASGSTFPYYAMGWYRQAPGKEREWVAAITSSASTYFADSVKGRFTISRDNAKNTVYLQMNSLKPEDTAVYYCAVRSPYRLSSWRVGYWGQGTQVTVSS”, “high polyreactivity”. For “QVHLVESGGGLVQAGGSLRLSCAASGSTFRGYGMGWYRQAPGKERELVAAISWRAASTYYADSVKGRFTISRDNAKNTVYLQMNSLKPEDTAVYYCAARYSFSSSTRYYYWGQGTQVTVSS” the value was “high polyreactivity”. For “QVHLVESGGGLVQAGGSLRLSCAASGSTFRLYALGWYRQAPGKERELVAVISRSGGRTYADSVKGRFTISRDNAKNTVYLQMNSLKPVDTAVYYCAKARHKSPTYTHDSWGQGTQVTVSS”, the “polyreactivity (PSR sort gate)” value is given as “high polyreactivity”. The value for “QVHLVESGGGLVQAGGSLRLSCAASGSTFRRNAMGWYRQAPGKERELVASITSGGSTYYADSVKGRFTITRDNAKNTVYLQMNSLKPEDTGVYYCAVVWRGGYRWPYEYWGQGTQVTVSS” was “low polyreactivity”; that for “QVHLVESGGGLVQAGGSLRLSCAASGSTFSWYDMGWYRQAPGKERELVAAISTTGSTYYADSVKGRFTISRDNAKNTVYLQMNSLKPEDTAVYYCAADYISIAWYRLFYDYDYWGQGTQVTVSS” was “high polyreactivity”; that for “QVHLVESGGGLVQAGGSLRLSCAASGSTFTLNAMGWYRQAPGKERELVAAITWDGGSTYYADSVKGRFTISRDNAKNTVYLQMNSLKPEDTAVYFCAADREFWWEVVYTYEYYYWGQGTQVTVSS” was “low polyreactivity”. Turning to “QVHLVESGGGLVQAGGSLRLSCAASGSTFYANLMGWYRQAPGKESELVAAIDGSGGRTYYADSVKGRFTISRDNAKNTVYLQMNSLKPEDTAVYYCAKKRIVPVIQFGRDYNYWGQGTQVTVSS”, the “polyreactivity (PSR sort gate)” value is reported as “high polyreactivity”.

Regarding “QVHLVESGGGLVQAGGSLRLSCAASGSTFYRYAMGWYSQAPGKERELVAAISKRGGSTYYADSVKGRFTISRDNAKNTVYLQMNSLKPEDTAGQYCAADPFDYGGGDDYWGQGTQVTVSS”, the “polyreactivity (PSR sort gate)” value is “high polyreactivity”.

As to “QVHLVESGGGLVQAGGSLRLSCAASGSTIRRYAMGWYRQAPGTERELVASITNRGGSTYYADSVKGLFTISRDNAKNTFYLQMNSLKPEDTAVYYCAKKGVYGPLNEYWGQGTQVTVSS”, the “polyreactivity (PSR sort gate)” value is “high polyreactivity”. The value for “QVHLVESGGGLVQAGGSLRLSCAASGSTLYWYAMGWYRQAPGKERELVARITVSGGSTSYADSVKGRFTISRDNAKNTVYLQMNSLKPEDTAVYYCAARRYWTGYYYWGQGTQVTVSS” was “high polyreactivity”; that for “QVHLVESGGGLVQAGGSLRLSCAASGSTSRKYTMGWYRQAPGKERELVATISWSGGSTNYADSVKGRFTISRDNAKNTVYLQMNSLKPEETAVYYCKAYVSPRYRGSRYYYWGQGTQVTVSS” was “high polyreactivity”; that for “QVHLVESGGGLVQAGGSLRLSCAASGSTVTLYAMGWYRQAPGKERELVASITWSGSTYADSVKGRFTISRDNAKNTVYLQMNSLKPEDTAVYYCNTDPRSVVGWYDYWGQGTQVTVSS” was “low polyreactivity”.

Regarding “QVHLVESGGGLVQAGGSLRLSCAASGTIYYVYSMVWYRQAPGKERELVASINKSGGSTYYADSVKWRFTISRDNAKNTVYLQMNSLKREDTAVYYCAARTGWPRVGFQYPAHVGFDYWGQGTQVTVSS”, the “polyreactivity (PSR sort gate)” value was “low polyreactivity”.

In the case of “QVHLVESGGGLVQAGGSLRLSCAASGYVMGWYRQAPGKERELVAAITRGTSTYYADSVKGRFTISRDNAKNTVYLQMNSLKPEDTAVYYCAARTTSGEWPPGNIGTYLYDYWGQGTQVTVSS”, the “polyreactivity (PSR sort gate)” value was “low polyreactivity”. Consider “QVHLVESGGGLVQAGGSLRLSCAAYGRIFTLNAMGWDRQAPGKERGWVARISRTGGSTYYADSVKGRFTISRDNAKNTVYLQMNSLKPEDTAVYYCAAAGFSRQPGAGAYYYWGQCTQVTVSS”, for which the “polyreactivity (PSR sort gate)” value is listed as “high polyreactivity”. Regarding “QVHLVESGGGLVQAGGSLRLSCADCGFTLYGNAMGWYRQAPGKVRELVAAITKSGGRTYYADSVKGRFTISRDNAKNTVYLQMNSLKPEDTAVYYCAVRAKSRYDYWGQGTQVTVSS”, the “polyreactivity (PSR sort gate)” value is given as “high polyreactivity”. In the case of “QVHLVESGGGLVQAGGSLRLSCADSGFTFRRYTMGWYRQAPGKERELVAVISASGGSTYYADSVKGRFTISRDNAKNTVYLQMNSLKPEDTAVYYCNTRAVVIGGDYWGQGTQVTVSS”, the “polyreactivity (PSR sort gate)” value was “high polyreactivity”.

As to “QVHLVESGGGLVQAGGSLRLSCADSGSIFRYYAMGWYRQAPGKEREMFARISWSGVSTYYADSVKGRFTISRDNAKNTVYLQMNSLKTEDTADYYCAGVDFRGYRYDLDYWGQGTQVTVSS”, the “polyreactivity (PSR sort gate)” value is given as “high polyreactivity”. The value for “QVHLVESGGGLVQAGGSLRLSCAPSGNIFFSNAMGWYRQAPGKERELVASISQSGGSTYYADSLKGRFTISRDNAKNTVYFQMNSLKPEDTAVYYCNAFSITFYDFNSWGQGTQVTVSS” was “low polyreactivity”; that for “QVHLVESGGGLVQAGGSLRLSCASSASIINVYAMGWYRQAPGKEREFVADINYSGGSTYADSVKGRFTISRDNAKNTVYLQMYSVKPEDTAVYYCADVYGYLYYELYYWGQGTQVTVSS” was “low polyreactivity”.
